Results taken from article PMC12167710.
One block for each binder: values may come before it.

Assays:
[1] = molecular target: recombinant human IgG1λ isotype control antibody (clone AbD00264_hIgG1) (human)
[2] = molecular target: recombinant mouse IgG1κ isotype control antibody (clone P3.6.2.8.1) (mouse)

Kd [1]: 1350 pM
B1: anti-human λ VHH (HuFab lambda 1) (VHH)
VHH: QVQLQDSGGGLVQPGGSLRLSCAASGFTLDYYAIGWFRQAPGKEREGVSCISSSDGSSDGYTYYADSVKGRFTISRDNAKNTVYLQMNNLKPEDTAVYYCAARLFGVATTDPSYFDSWGQGTQVTVSS

Kd [2]: 16.7 pM
B2: anti-mouse κ VHH (TP1170) (VHH)
VHH: QVQLVESGGGWVQPGGSLRLSCAASGFTFSDTAMMWVRQAPGKGREWVAAIDTGGGYTYYADSVKGRFTISRDNAKNTLYLQMNSLKPEDTARYYCAKTYSGNYYSNYTVANYGTTGRGTLVTVSS
